{"source": "the Immune Epitope Database (IEDB)", "data": [{"molecular_target": "HLA-A*02:01", "test": "IEDB peptide-MHC binding, purified MHC/competitive/radioactivity; filed as Kd, often an IC50 or EC50 that approximates it; ≥ and ≤ were set here for values at or beyond the usual limits of such assays", "conditions": "source organism: Toxoplasma gondii", "units": {"Kd": "nM"}, "values": [{"sequence": "ITMGSLFFV", "Kd": 0.16}, {"sequence": "FMIVSISLV", "Kd": 16}, {"sequence": "FLTDYIPGA", "Kd": 0.7}, {"sequence": "FVIFACNFV", "Kd": 34}, {"sequence": "FMIAFISCFA", "Kd": 32}, {"sequence": "FLSLSLLVI", "Kd": 736}, {"sequence": "FLLGLLVHV", "Kd": 6.4}, {"sequence": "GLAAAVVAV", "Kd": 9.6}]}, {"molecular_target": "HLA-A*02:02", "test": "IEDB peptide-MHC binding, purified MHC/competitive/radioactivity; filed as Kd, often an IC50 or EC50 that approximates it; ≥ and ≤ were set here for values at or beyond the usual limits of such assays", "conditions": "source organism: Toxoplasma gondii", "units": {"Kd": "nM"}, "values": [{"sequence": "ITMGSLFFV", "Kd": 0.64}, {"sequence": "FMIVSISLV", "Kd": 1.8}, {"sequence": "FLTDYIPGA", "Kd": 7.1}, {"sequence": "FVIFACNFV", "Kd": 11}, {"sequence": "FMIAFISCFA", "Kd": 56}, {"sequence": "FLSLSLLVI", "Kd": 173}, {"sequence": "FLLGLLVHV", "Kd": 37}, {"sequence": "GLAAAVVAV", "Kd": 31}]}, {"molecular_target": "HLA-A*02:03", "test": "IEDB peptide-MHC binding, purified MHC/competitive/radioactivity; filed as Kd, often an IC50 or EC50 that approximates it; ≥ and ≤ were set here for values at or beyond the usual limits of such assays", "conditions": "source organism: Toxoplasma gondii", "units": {"Kd": "nM"}, "values": [{"sequence": "ITMGSLFFV", "Kd": 0.5}, {"sequence": "FMIVSISLV", "Kd": "≤ 1"}, {"sequence": "FLTDYIPGA", "Kd": 7.8}, {"sequence": "FVIFACNFV", "Kd": 6.5}, {"sequence": "FMIAFISCFA", "Kd": 56}, {"sequence": "FLSLSLLVI", "Kd": 83}, {"sequence": "FLLGLLVHV", "Kd": 4.6}, {"sequence": "GLAAAVVAV", "Kd": 1.3}]}, {"molecular_target": "HLA-A*02:06", "test": "IEDB peptide-MHC binding, purified MHC/competitive/radioactivity; filed as Kd, often an IC50 or EC50 that approximates it; ≥ and ≤ were set here for values at or beyond the usual limits of such assays", "conditions": "source organism: Toxoplasma gondii", "units": {"Kd": "nM"}, "values": [{"sequence": "ITMGSLFFV", "Kd": 0.26}, {"sequence": "FMIVSISLV", "Kd": 6.2}, {"sequence": "FLTDYIPGA", "Kd": 1.2}, {"sequence": "FVIFACNFV", "Kd": 5.6}, {"sequence": "FMIAFISCFA", "Kd": 112}, {"sequence": "FLSLSLLVI", "Kd": "≥ 10000"}, {"sequence": "FLLGLLVHV", "Kd": 9.9}, {"sequence": "GLAAAVVAV", "Kd": 55}]}, {"molecular_target": "HLA-A*68:02", "test": "IEDB peptide-MHC binding, purified MHC/competitive/radioactivity; filed as Kd, often an IC50 or EC50 that approximates it; ≥ and ≤ were set here for values at or beyond the usual limits of such assays", "conditions": "source organism: Toxoplasma gondii", "units": {"Kd": "nM"}, "values": [{"sequence": "ITMGSLFFV", "Kd": 1.1}, {"sequence": "FMIVSISLV", "Kd": 48}, {"sequence": "FLTDYIPGA", "Kd": 2100}, {"sequence": "FVIFACNFV", "Kd": 1.2}, {"sequence": "FMIAFISCFA", "Kd": 397}, {"sequence": "FLSLSLLVI", "Kd": 9830}, {"sequence": "FLLGLLVHV", "Kd": 173}, {"sequence": "GLAAAVVAV", "Kd": 263}]}]}
